Laboratory results reported in doi:10.1101/2025.10.04.680454.
Blank lines part the entries; values can stand above or below the binder they belong to.

What was measured:
[1] = target: Mb-1 (parental minibinder), N-terminal polyhistidine tag; assay: SPR
[2] = target: Mb-4 (parental minibinder), N-terminal polyhistidine tag; assay: SPR
[3] = target: all four evolved minibinders (purified proteins); assay: SPR
[4] = target: evolved Mb-1 (affinity matured variant), N-terminal polyhistidine tag; assay: SPR
[5] = target: Mb-1 A14V displayed on the yeast cell surface (minibinder-HA-AGA2); assay: flow cytometry on cells
[6] = target: Mb-1 P29S displayed on the yeast cell surface (minibinder-HA-AGA2); assay: flow cytometry on cells

Kd [1]: > 1000 nM | Kd [2]: 7.8 nM | Kd [3]: 0.56 to 34 nM | Kd [4]: 2.1 nM
B1: human IL-7Rα extracellular domain (residues 37-231) with a C-terminal C-tag (domain or fragment)
chain: DYSFSCYSQLEVNGSQHSLTCAFEDPDVNITNLEFEICGALVEVKCLNFRKLQEIYFIETKKFLLIGKSNICVKVGEKSLTCKKIDLTTIVKPEAPFDLSVVYREGANDFVVTFNTSHLQKKYVKVLMHDVAYRQEKDENKWTHVNLSSTKLTLLQRKLQPAAMYEIKVRSIPDHYFKGFWSEWSPSYYFRTPEI

Δ-log10[KD] against parental Mb-1 [5]: 1.18 | Δ-log10[KD] against parental Mb-1 [6]: 0.03
B2: human IL-7Rα fused to a human IgG single-chain Fc tag (Fc fusion)
chain: ESGYAQNGDLEDAELDDYSFSCYSQLEVNGSQHSLTCAFEDPDVNITNLEFEICGALVEVKCLNFRKLQEIYFIETKKFLLIGKSNICVKVGEKSLTCKKIDLTTIVKPEAPFDLSVVYREGANDFVVTFNTSHLQKKYVKVLMHDVAYRQEKDENKWTHVNLSSTKLTLLQRKLQPAAMYEIKVRSIPDHYFKGFWSEWSPSYYFRTPEINNSSGEMD
